We go through one substance from paper PMC2824758.

This assay concerns the target CD81 large external loop (LEL) (UniProt P60033).
UniProt P60033, sequence (P60033 113-201): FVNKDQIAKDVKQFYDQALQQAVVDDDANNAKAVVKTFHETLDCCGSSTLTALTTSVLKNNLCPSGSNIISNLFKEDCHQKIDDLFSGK

Substance “HCV E2 ectodomain (E2e), isolate UKN2b_2.8, genotype 2b (domain or fragment)” returned an inhibition of infection of Huh-7.5 cells by HCVcc (infected foci, HCV core immunofluorescence), cells preincubated with 0.05 to 2 µM HCV E2e; 10% inhibition at 0.05 µM of 90%.
